How the values were obtained:
[1] = biological target: T1, Recombinant human FAP (R&D systems, #3715-SE) (human)
T1 sequence: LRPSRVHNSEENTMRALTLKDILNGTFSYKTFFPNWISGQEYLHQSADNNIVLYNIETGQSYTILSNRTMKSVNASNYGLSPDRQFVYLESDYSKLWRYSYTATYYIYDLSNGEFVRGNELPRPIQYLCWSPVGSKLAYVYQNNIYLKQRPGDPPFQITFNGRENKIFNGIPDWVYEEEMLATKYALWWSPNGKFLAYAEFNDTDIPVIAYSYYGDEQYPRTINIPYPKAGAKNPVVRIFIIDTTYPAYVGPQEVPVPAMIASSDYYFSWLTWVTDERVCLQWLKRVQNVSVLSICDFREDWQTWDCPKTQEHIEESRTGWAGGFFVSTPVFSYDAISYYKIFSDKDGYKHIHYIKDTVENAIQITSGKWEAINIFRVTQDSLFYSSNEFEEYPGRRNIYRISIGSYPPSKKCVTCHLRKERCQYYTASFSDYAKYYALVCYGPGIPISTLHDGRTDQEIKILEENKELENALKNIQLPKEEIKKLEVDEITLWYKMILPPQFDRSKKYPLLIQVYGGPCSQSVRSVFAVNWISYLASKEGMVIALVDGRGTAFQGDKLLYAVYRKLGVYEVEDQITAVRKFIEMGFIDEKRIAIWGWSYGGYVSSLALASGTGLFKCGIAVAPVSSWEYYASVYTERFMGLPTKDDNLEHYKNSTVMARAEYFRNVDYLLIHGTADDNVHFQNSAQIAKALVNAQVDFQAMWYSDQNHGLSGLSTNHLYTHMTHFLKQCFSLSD

[2] = biological target: human fibroblast activation protein (FAP) on FAP-expressing human WI-38 fibroblasts (human); assay: competition FACS, WI-38 cells, vs Cy5-labeled compound; D: pIC50 ≤6.0
[3] = biological target: human fibroblast activation protein (FAP) on FAP-expressing human WI-38 fibroblasts (human); assay: competition FACS, WI-38 cells, vs Cy5-labeled compound; A: pIC50 >8.0
[4] = biological target: Recombinant human DPP4 (R&D systems, #9168-SE) (human)
[5] = biological target: recombinant human PREP (R&D systems, #4308-SE) (human)

pIC50 Category (Activity) [1] [pIC50] | pIC50 Category (FACS) [2] [pIC50] | pIC50 Category (FACS) [3] [pIC50] | pIC50 (DPP4) [4] [pIC50] | pIC50 (PREP) [5] [pIC50] | Substance
< 6 | < 6 |  |  |  | DOTA-Ttds-Hci-[Cys(3MeBn)-Pro-Pro-Thr-Gln-Phe-Cys]-Bal-OH (peptide)
 | < 6 |  |  |  | DOTA-Ttds-Hgl-[Cys(3MeBn)-Pro-Pro-Thr-Gln-Phe-Cys]-Bal-OH (peptide)
> 8 |  | > 8 |  |  | DOTA-Ttds-Met-[Cys(3MeBn)-Pro-Pro-Thr-Glu-Phe-Cys]-Asp-His-Phe-Arg-Asp-NH2 (peptide)
> 8 |  | > 8 |  |  | DOTA-Ttds-Nle-[Cys(3MeBn)-Pro-Pro-Thr-Gln-Phe-Cys]-Asp-NH2 (peptide)
 |  |  | < 6 | < 6 | DOTA-Ttds-Nle-[Cys(3MeBn)-Pro-Pro-Thr-Gln-Phe-Cys]-Bal-OH (3BP-3398) (peptide)
> 8 |  | > 8 |  |  | DOTA-Ttds-Nle-[Cys(3MeBn)-Pro-Pro-Thr-Gln-Phe-Cys]-Bal-OH (peptide)
 |  |  | < 6 | < 6 | DOTA-Ttds-Nle-[Cys(3MeBn)-Pro-Pro-Thr-Glu-Phe-Cys]-Asp-His-Phe-Arg-Asp-NH2 (3BP-3168) (peptide)
> 8 |  | > 8 |  |  | DOTA-Ttds-Nle-[Cys(3MeBn)-Pro-Pro-Thr-Glu-Phe-Cys]-Asp-His-Phe-Arg-Asp-NH2 (peptide)
 |  |  | < 6 | < 6 | DOTA-Ttds-Nle-[Cys(3MeBn)-Pro-Pro-Thr-Glu-Phe-Cys]-Asp-NH2 (3BP-3320) (peptide)
 |  |  | < 6 | < 6 | DOTA-Ttds-Nle-[Cys(3MeBn)-Pro-Pro-Thr-Glu-Phe-Cys]-Asp-Pamb-Arg-NH2 (3BP-3321) (peptide)
> 8 |  | > 8 |  |  | DOTA-Ttds-Nle-[Cys(3MeBn)-Pro-Pro-Thr-Glu-Phe-Cys]-Asp-Pamb-Arg-NH2 (peptide)
 |  |  | < 6 | 6.2 | DOTA-Ttds-Nle-[Cys(3MeBn)-Pro-Pro-Thr-Glu-Phe-Cys]-NH2 (3BP-3319) (peptide)
 |  |  | < 6 | < 6 | H-Met-[Cys(3MeBn)-Pro-Pro-Thr-Glu-Phe-Cys]-Asp-His-Phe-Arg-Asp-Ttds-Lys(Bio)-NH2 (3BP-2881) (peptide)
> 8 |  | > 8 |  |  | H-Met-[Cys(3MeBn)-Pro-Pro-Thr-Glu-Phe-Cys]-Asp-His-Phe-Arg-Asp-Ttds-Lys(Bio)-NH2 (peptide)
> 8 |  | > 8 |  |  | H-met-[Cys(3MeBn)-Pro-Pro-Thr-Glu-Phe-Cys]-Asp-His-Phe-Arg-Asp-NH2 (peptide)
 | < 6 |  |  |  | Hex-[Cys(3MeBn)-Pro-4Dfp-Thr-Glu-Phe-Cys]-NH2 (peptide)
 | < 6 |  |  |  | Hex-[Cys(3MeBn)-Pro-Eay-Thr-Glu-Phe-Cys]-NH2 (peptide)
 | < 6 |  |  |  | Hex-[Cys(3MeBn)-Pro-Pro-Opc-Glu-Phe-Cys]-NH2 (peptide)
 | < 6 |  |  |  | Hex-[Cys(3MeBn)-Pro-Pro-Orn(Ac)-Glu-Phe-Cys]-NH2 (peptide)
> 8 |  | > 8 |  |  | Hex-[Cys(3MeBn)-Pro-Pro-Thr-Gln-Phe-Cys]-Asp-Ttds-Lys(DOTA)-NH2 (peptide)
 |  |  | < 6 | < 6 | Hex-[Cys(3MeBn)-Pro-Pro-Thr-Gln-Phe-Cys]-Bhk(DOTA)-OH (3BP-3397) (peptide)
> 8 |  | > 8 |  |  | Hex-[Cys(3MeBn)-Pro-Pro-Thr-Gln-Phe-Cys]-Bhk(DOTA)-OH (peptide)
> 8 |  | > 8 |  |  | Hex-[Cys(3MeBn)-Pro-Pro-Thr-Gln-Phe-Cys]-Bhk(DOTA-Ttds)-OH (peptide)
< 6 | < 6 |  |  |  | Hex-[Cys(3MeBn)-Pro-Pro-Thr-Glu-Bip-Cys]-NH2 (peptide)
 | < 6 |  |  |  | Hex-[Cys(3MeBn)-Pro-Pro-Thr-Glu-Nmf-Cys]-NH2 (peptide)
< 6 | < 6 |  |  |  | Hex-[Cys(3MeBn)-Pro-Pro-Thr-Glu-Nphe-Cys]-NH2 (peptide)
> 8 |  | > 8 |  |  | Hex-[Cys(3MeBn)-Pro-Pro-Thr-Glu-Phe-Cys]-Asp-Arg-NH2 (peptide)

pIC50 Category (Activity) [1] [pIC50] | pIC50 Category (FACS) [2] [pIC50] | pIC50 Category (FACS) [3] [pIC50] | pIC50 (DPP4) [4] [pIC50] | pIC50 (PREP) [5] [pIC50] | Substance
> 8 |  | > 8 |  |  | Hex-[Cys(3MeBn)-Pro-Pro-Thr-Glu-Phe-Cys]-Asp-Cmp-Arg-NH2 (peptide)
> 8 |  | > 8 |  |  | Hex-[Cys(3MeBn)-Pro-Pro-Thr-Glu-Phe-Cys]-Asp-Gab-Arg-NH2 (peptide)
 |  |  | < 6 | < 6 | Hex-[Cys(3MeBn)-Pro-Pro-Thr-Glu-Phe-Cys]-Asp-His-Nmf-Arg-Ttds-Lys(DOTA)-NH2 (3BP-3275) (peptide)
> 8 |  | > 8 |  |  | Hex-[Cys(3MeBn)-Pro-Pro-Thr-Glu-Phe-Cys]-Asp-His-Nmf-Arg-Ttds-Lys(DOTA)-NH2 (peptide)
> 8 |  | > 8 |  |  | Hex-[Cys(3MeBn)-Pro-Pro-Thr-Glu-Phe-Cys]-Asp-His-Phe-Arg-Asp-Ttds-Lys(DOTA)-NH2 (peptide)
> 8 |  | > 8 |  |  | Hex-[Cys(3MeBn)-Pro-Pro-Thr-Glu-Phe-Cys]-Asp-His-Ppa-arg-Ttds-Lys(DOTA)-NH2 (peptide)
> 8 |  | > 8 |  |  | Hex-[Cys(3MeBn)-Pro-Pro-Thr-Glu-Phe-Cys]-Asp-His-phe-Arg-Ttds-Lys(DOTA)-NH2 (peptide)
> 8 |  | > 8 |  |  | Hex-[Cys(3MeBn)-Pro-Pro-Thr-Glu-Phe-Cys]-Asp-Mamb-Arg-NH2 (peptide)
> 8 |  | > 8 |  |  | Hex-[Cys(3MeBn)-Pro-Pro-Thr-Glu-Phe-Cys]-Asp-Pamb-Arg-NH2 (peptide)
> 8 |  | > 8 |  |  | Hex-[Cys(3MeBn)-Pro-Pro-Thr-Glu-Phe-Cys]-Asp-Ttds-Lys(DOTA)-NH2 (peptide)
 | < 6 |  |  |  | Hex-[Cys(3MeBn)-Pro-Pro-Thr-Glu-Phe-Pen]-NH2 (peptide)
 | < 6 |  |  |  | Hex-[Cys(3MeBn)-Pro-Pro-Thr-Glu-Tic-Cys]-NH2 (peptide)
< 6 | < 6 |  |  |  | Hex-[Cys(3MeBn)-Pro-Pro-Thr-Moo-Phe-Cys]-NH2 (peptide)
< 6 | < 6 |  |  |  | Hex-[Cys(3MeBn)-Pro-Pro-Thr-Nme-Phe-Cys]-NH2 (peptide)
 | < 6 |  |  |  | Hex-[Cys(3MeBn)-Pro-Tap-Thr-Glu-Phe-Cys]-NH2 (peptide)
> 8 |  | > 8 |  |  | Hex-[Cys(tMeBn(DOTA-AET))-Nmg-Pro-Thr-Gln-Phe-Cys]-OH (peptide)
> 8 |  | > 8 |  |  | Hex-[Cys(tMeBn(DOTA-AET))-Pro-Hyp-Thr-Gln-Phe-Cys]-OH (peptide)
> 8 |  | > 8 |  |  | Hex-[Cys(tMeBn(DOTA-AET))-Pro-Pro-Thr-Gln-1Ni-Cys]-OH (peptide)
> 8 |  | > 8 |  |  | Hex-[Cys(tMeBn(DOTA-AET))-Pro-Pro-Thr-Gln-Mpa-Cys]-OH (peptide)
> 8 |  | > 8 |  |  | Hex-[Cys(tMeBn(DOTA-AET))-Pro-Pro-Thr-Gln-Otf-Cys]-OH (peptide)
> 8 |  | > 8 |  |  | Hex-[Cys(tMeBn(DOTA-AET))-Pro-Pro-Thr-Gln-Phe-AET] (peptide)
> 8 |  | > 8 |  |  | Hex-[Cys(tMeBn(DOTA-AET))-Pro-Pro-Thr-Gln-Phe-Cys]-Bal-OH (peptide)
> 8 |  | > 8 |  |  | Hex-[Cys(tMeBn(DOTA-AET))-Pro-Pro-Thr-Gln-Phe-Cys]-Bhf-OH (peptide)
> 8 |  | > 8 |  |  | Hex-[Cys(tMeBn(DOTA-AET))-Pro-Pro-Thr-Gln-Phe-Cys]-Gab-OH (peptide)
> 8 |  | > 8 |  |  | Hex-[Cys(tMeBn(DOTA-AET))-Pro-Pro-Thr-Gln-Phe-Cys]-Gly-OH (peptide)
> 8 |  | > 8 |  |  | Hex-[Cys(tMeBn(DOTA-AET))-Pro-Pro-Thr-Gln-Phe-Cys]-Nmg-OH (peptide)
> 8 |  | > 8 |  |  | Hex-[Cys(tMeBn(InDOTA-AET))-Pro-Pro-Thr-Gln-Phe-AET] (peptide)
